Test results from publication PMC10945584, “Dual recognition of multiple signals in bacterial outer membrane proteins enhances assembly and maintains membrane integrity” (eLife, 2024).
Several values for one entry are separate records, joined by “and”; a condition that tells them apart may be missing. Equal entries are not always repeated.

Assays:
[1] = molecular target: the molecule itself; assay: native gel or EMSA; 35S-labeled substrate incubated with E. coli microsomal membranes (EMM) at 30 °C, membranes solubilised in 1.5% DDM, BN-PAGE and radio-imaging
[2] = molecular target: the molecule itself; assay: native gel or EMSA; EMM from E. coli strains solubilised with 1.5% DDM, BN-PAGE and immunoblotting
[3] = molecular target: the molecule itself; assay: SDS-PAGE of unboiled samples after folding into detergent micelles; 5 μM urea-denatured OmpC in 10 mM phosphate pH 8.0, 2 mM EDTA, 1 mM glycine, 3.4 mM DDM, 37 °C up to 36 h; samples boiled or kept at room temperature

Protein | stoichiometry N [1] | other results
35S-labeled OmpF, in vitro translated (natural protein, Escherichia coli, UniProt P02931 1-362, looked up, 35S-methionine label, OmpF, E. coli; source: in vitro translated (rabbit reticulocyte lysate, 35S-methionine)) MMKRNILAVIVPALLVAGTANAAEIYNKDGNKVDLYGKAVGLHYFSKGNGENSYGGNGDMTYARLGFKGETQINSDLTGYGQWEYNFQGNNSEGADAQTGNKTRLAFAGLKYADVGSFDYGRNYGVVYDALGYTDMLPEFGGDTAYSDDFFVGRVGGVATYRNSNFFGLVDGLNFAVQYLGKNERDTARRSNGDGVGGSISYEYEGFGIVGAYGAADRTNLQEAQPLGNGKKAEQWATGLKYDANNIYLAANYGETRNATPITNKFTNTSGFANKTQDVLLVAQYQFDFGLRPSIAYTKSKAKDVEGIGDVDLVNYFEVGATYYFNKNMSTYVDYIINQIDSDNKLGVGSDDTVAVGIVYQF | 3 | –
FLAG-OmpC expressed in E. coli (natural protein, Escherichia coli, UniProt P06996 22-367, looked up, OmpC, E. coli; Two plasmid names are printed for FLAG-OmpC; also called FLAG-OmpC(WT); FLAG-tagged form of OmpC; not shown: FLAG, N-terminal, kept) AEVYNKDGNKLDLYGKVDGLHYFSDNKDVDGDQTYMRLGFKGETQVTDQLTGYGQWEYQIQGNSAENENNSWTRVAFAGLKFQDVGSFDYGRNYGVVYDVTSWTDVLPEFGGDTYGSDNFMQQRGNGFATYRNTDFFGLVDGLNFAVQYQGKNGNPSGEGFTSGVTNNGRDALRQNGDGVGGSITYDYEGFGIGGAISSSKRTDAQNTAAYIGNGDRAETYTGGLKYDANNIYLAAQYTQTYNATRVGSLGWANKAQNFEAVAQYQFDFGLRPSLAYLQSKGKNLGRGYDDEDILKYVDVGATYYFNKNMSTYVDYKINLLDDNQFTRDAGINTDNIVALGLVYQF | – | stoichiometry N [2]: 2 and 3
OmpC, His6-tagged, purified, urea-denatured (natural protein, Escherichia coli, UniProt P06996 22-367, looked up, OmpC, E. coli; also called OmpC(WT); native OmpC protein; source: E. coli BL21(DE3)*, inclusion bodies, purified in 6 M urea (Ni-NTA)) AEVYNKDGNKLDLYGKVDGLHYFSDNKDVDGDQTYMRLGFKGETQVTDQLTGYGQWEYQIQGNSAENENNSWTRVAFAGLKFQDVGSFDYGRNYGVVYDVTSWTDVLPEFGGDTYGSDNFMQQRGNGFATYRNTDFFGLVDGLNFAVQYQGKNGNPSGEGFTSGVTNNGRDALRQNGDGVGGSITYDYEGFGIGGAISSSKRTDAQNTAAYIGNGDRAETYTGGLKYDANNIYLAAQYTQTYNATRVGSLGWANKAQNFEAVAQYQFDFGLRPSLAYLQSKGKNLGRGYDDEDILKYVDVGATYYFNKNMSTYVDYKINLLDDNQFTRDAGINTDNIVALGLVYQF | – | stoichiometry N [3]: 3 and 2
35S-labeled OmpC(Y286A), in vitro translated (natural protein, Escherichia coli, UniProt P06996 1-367, looked up, 35S-methionine label, OmpC, E. coli; also called internal signal mutant; source: in vitro translated (rabbit reticulocyte lysate, 35S-methionine)) MKVKVLSLLVPALLVAGAANAAEVYNKDGNKLDLYGKVDGLHYFSDNKDVDGDQTYMRLGFKGETQVTDQLTGYGQWEYQIQGNSAENENNSWTRVAFAGLKFQDVGSFDYGRNYGVVYDVTSWTDVLPEFGGDTYGSDNFMQQRGNGFATYRNTDFFGLVDGLNFAVQYQGKNGNPSGEGFTSGVTNNGRDALRQNGDGVGGSITYDYEGFGIGGAISSSKRTDAQNTAAYIGNGDRAETYTGGLKYDANNIYLAAQYTQTYNATRVGSLGWANKAQNFEAVAQAQFDFGLRPSLAYLQSKGKNLGRGYDDEDILKYVDVGATYYFNKNMSTYVDYKINLLDDNQFTRDAGINTDNIVALGLVYQF | 3 | –
35S-labeled OmpC, in vitro translated (natural protein, Escherichia coli, UniProt P06996 1-367, looked up, 35S-methionine label, OmpC, E. coli; also called 35S-OmpC; OmpC(WT); source: in vitro translated (rabbit reticulocyte lysate, 35S-methionine)) MKVKVLSLLVPALLVAGAANAAEVYNKDGNKLDLYGKVDGLHYFSDNKDVDGDQTYMRLGFKGETQVTDQLTGYGQWEYQIQGNSAENENNSWTRVAFAGLKFQDVGSFDYGRNYGVVYDVTSWTDVLPEFGGDTYGSDNFMQQRGNGFATYRNTDFFGLVDGLNFAVQYQGKNGNPSGEGFTSGVTNNGRDALRQNGDGVGGSITYDYEGFGIGGAISSSKRTDAQNTAAYIGNGDRAETYTGGLKYDANNIYLAAQYTQTYNATRVGSLGWANKAQNFEAVAQYQFDFGLRPSLAYLQSKGKNLGRGYDDEDILKYVDVGATYYFNKNMSTYVDYKINLLDDNQFTRDAGINTDNIVALGLVYQF | 3 | –
35S-labeled LamB, in vitro translated (natural protein, Escherichia coli, UniProt P02943 1-446, looked up, 35S-methionine label, LamB (maltoporin), E. coli; also called maltoporin; source: in vitro translated (rabbit reticulocyte lysate, 35S-methionine)) MMITLRKLPLAVAVAAGVMSAQAMAVDFHGYARSGIGWTGSGGEQQCFQTTGAQSKYRLGNECETYAELKLGQEVWKEGDKSFYFDTNVAYSVAQQNDWEATDPAFREANVQGKNLIEWLPGSTIWAGKRFYQRHDVHMIDFYYWDISGPGAGLENIDVGFGKLSLAATRSSEAGGSSSFASNNIYDYTNETANDVFDVRLAQMEINPGGTLELGVDYGRANLRDNYRLVDGASKDGWLFTAEHTQSVLKGFNKFVVQYATDSMTSQGKGLSQGSGVAFDNEKFAYNINNNGHMLRILDHGAISMGDNWDMMYVGMYQDINWDNDNGTKWWTVGIRPMYKWTPIMSTVMEIGYDNVESQRTGDKNNQYKITLAQQWQAGDSIWSRPAIRVFATYAKWDEKWGYDYTGNADNNANFGKAVPADFNGGSFGRGDSDEWTFGAQMEIWW | 3 | –
OmpF, endogenous (natural protein, Escherichia coli (endogenous), UniProt P02931 23-362, looked up, OmpF, E. coli; also called endogenous OmpF; trimeric OmpF; source: endogenous, E. coli membrane fractions (EMM)) AEIYNKDGNKVDLYGKAVGLHYFSKGNGENSYGGNGDMTYARLGFKGETQINSDLTGYGQWEYNFQGNNSEGADAQTGNKTRLAFAGLKYADVGSFDYGRNYGVVYDALGYTDMLPEFGGDTAYSDDFFVGRVGGVATYRNSNFFGLVDGLNFAVQYLGKNERDTARRSNGDGVGGSISYEYEGFGIVGAYGAADRTNLQEAQPLGNGKKAEQWATGLKYDANNIYLAANYGETRNATPITNKFTNTSGFANKTQDVLLVAQYQFDFGLRPSIAYTKSKAKDVEGIGDVDLVNYFEVGATYYFNKNMSTYVDYIINQIDSDNKLGVGSDDTVAVGIVYQF | – | stoichiometry N [2]: 3 and 2
